The labels stand for the following.
B1: SH3 and PX domain-containing protein 2B, residues 155 to 209; numbered along this chain, A1X283 (parent)
chain: EQYVVVANYQKQESSEISLSVGQVVDIIEKNESGWWFVSTAEEQGWVPATCLEGQ

± gives the uncertainty stated by the source.

In this series the parent is B1. Nature of the series: abundance fitness (aPCA) (normalised: wild type 0, dead -1); higher = more abundant; growth selection in yeast, the domain comes from the species named. To be noted: Homo sapiens.
As for EQYVVVANYQKQESSEISLSVGQVVDIIEKNESGWWFVSTAWEQGWVPATCLEGQ, the abundance fitness was -0.118 ± 0.079.
Consider EQYVVVANYQKQESSEISLSVGQVVDIIEKNESGWWFVSTAAEQGWVPATCLEGQ, for which the abundance fitness was -0.057 ± 0.077.
As to EQYVVVANYQKQESSEISLSVGQVVDIIEKNESGWWFVSTAHEQGWVPATCLEGQ, the abundance fitness was 0.063 ± 0.37.
As for EQYVVVANYQKQESSEISLSVGQVVDIIEKNESGWWFVSTAQEQGWVPATCLEGQ, the abundance fitness was 0.019 ± 0.12.
For the variant EQYVVVANYQKQESSEISLSVGQVVDIIEKNESGWWFVSTAPEQGWVPATCLEGQ, the abundance fitness was -0.431 ± 0.097.
As to EQYVVVANYQKQESSEISLSVGQVVDIIEKNESGWWFVSTAIEQGWVPATCLEGQ, the abundance fitness was -0.387 ± 0.14.
Next, EQYVVVANYQKQESSEISLSVGQVVDIIEKNESGWWFVSTACEQGWVPATCLEGQ: -0.064 ± 0.092; EQYVVVANYQKQESSEISLSVGQVVDIIEKNESGWWFVSTAKEQGWVPATCLEGQ: -0.057 ± 0.12; EQYVVVANYQKQESSEISLSVGQVVDIIEKNESGWWFVSTAGEQGWVPATCLEGQ: -0.037 ± 0.061.
EQYVVVANYQKQESSEISLSVGQVVDIIEKNESGWWFVSTAYEQGWVPATCLEGQ: the abundance fitness is -0.163 ± 0.14.
Take EQYVVVANYQKQESSEISLSVGQVVDIIEKNESGWWFVSTASEQGWVPATCLEGQ: the abundance fitness was 0.07 ± 0.071.
With EQYVVVANYQKQESSEISLSVGQVVDIIEKNESGWWFVSTAMEQGWVPATCLEGQ, the abundance fitness is -0.048 ± 0.13.
In the case of EQYVVVANYQKQESSEISLSVGQVVDIIEKNESGWWFVSTADEQGWVPATCLEGQ, the abundance fitness was determined as 0.086 ± 0.082.
Turning to EQYVVVANYQKQESSEISLSVGQVVDIIEKNESGWWMVSTAEEQGWVPATCLEGQ, the abundance fitness was -0.069 ± 0.12.
On to EQYVVVANYQKQESSEISLSVGQVVDIIEKNESGWWYVSTAEEQGWVPATCLEGQ, for which the abundance fitness amounted to 0.061 ± 0.17.
In the case of EQYVVVANYQKQESSEISLSVGQVVDIIEKNESGWWHVSTAEEQGWVPATCLEGQ, the abundance fitness was -0.068 ± 0.12.
With EQYVVVANYQKQESSEISLSVGQVVDIIEKNESGWWKVSTAEEQGWVPATCLEGQ, the abundance fitness amounted to 0.066 ± 0.14.
As to EQYVVVANYQKQESSEISLSVGQVVDIIEKNESGWWLVSTAEEQGWVPATCLEGQ, the abundance fitness was determined as 0.03 ± 0.087.
For the variant EQYVVVANYQKQESSEISLSVGQVVDIIEKNESGWWRVSTAEEQGWVPATCLEGQ, the abundance fitness stood at 0.06 ± 0.07.
In the case of EQYVVVANYQKQESSEISLSVGQVVDIIEKNESGWWQVSTAEEQGWVPATCLEGQ, the abundance fitness is 0.036 ± 0.13.
As for EQYVVVANYQKQESSEISLSVGQVVDIIEKNESGWWTVSTAEEQGWVPATCLEGQ, the abundance fitness was -0.472 ± 0.15.
Next, EQYVVVANYQKQESSEISLSVGQVVDIIEKNESGWWSVSTAEEQGWVPATCLEGQ: -0.109 ± 0.072; EQYVVVANYQKQESSEISLSVGQVVDIIEKNESGWWIVSTAEEQGWVPATCLEGQ: -0.181 ± 0.15; EQYVVVANYQKQESSEISLSVGQVVDIIEKNESGWWFVSTAEAQGWVPATCLEGQ: -0.038 ± 0.087.
On to EQYVVVANYQKQESSEISLSVGQVVDIIEKNESGWWFVSTAEFQGWVPATCLEGQ, for which the abundance fitness is -0.265 ± 0.14.
In the case of EQYVVVANYQKQESSEISLSVGQVVDIIEKNESGWWFVSTAEHQGWVPATCLEGQ, the abundance fitness was -0.021 ± 0.15.
For the variant EQYVVVANYQKQESSEISLSVGQVVDIIEKNESGWWFVSTAEGQGWVPATCLEGQ, the abundance fitness was determined as 0.041 ± 0.063.
Turning to EQYVVVANYQKQESSEISLSVGQVVDIIEKNESGWWFVSTAEIQGWVPATCLEGQ, the abundance fitness is -0.155 ± 0.14.
Take EQYVVVANYQKQESSEISLSVGQVVDIIEKNESGWWFVSTAEDQGWVPATCLEGQ: the abundance fitness came out at 0.087 ± 0.25.
With EQYVVVANYQKQESSEISLSVGQVVDIIEKNESGWWFVSPAEEQGWVPATCLEGQ, the abundance fitness is -0.699 ± 0.14.
For EQYVVVANYQKQESSEISLSVGQVVDIIEKNESGWWFVSCAEEQGWVPATCLEGQ, the abundance fitness was -0.201 ± 0.12.
For EQYVVVANYQKQESSEISLSVGQVVDIIEKNESGWWFVSSAEEQGWVPATCLEGQ, the abundance fitness is 0.015 ± 0.075.
In the case of EQYVVVANYQKQESSEISLSVGQVVDIIEKNESGWWFVSMAEEQGWVPATCLEGQ, the abundance fitness was -0.065 ± 0.14.
Turning to EQYVVVANYQKQESSEISLSVGQVVDIIEKNESGWWFVSDAEEQGWVPATCLEGQ, the abundance fitness was -0.234 ± 0.099.
To EQYVVVANYQKQESSEISLSVGQVVDIIEKNESGWWFVSHAEEQGWVPATCLEGQ belongs -0.15 ± 0.16; to EQYVVVANYQKQESSEISLSVGQVVDIIEKNESGWWFVSWAEEQGWVPATCLEGQ, -0.354 ± 0.098.
As to EQYVVVANYQKQESSEISLSVGQVVDIIEKNESGWWFVSQAEEQGWVPATCLEGQ, the abundance fitness was 0.063 ± 0.11.
Turning to EQYVVVANYQKQESSEISLSVGQVVDIIEKNESGWWFVSLAEEQGWVPATCLEGQ, the abundance fitness was -0.031 ± 0.071.
As for EQYVVVANYQKQESSEISLSVGQVVDIIEKNESGWWFVSFAEEQGWVPATCLEGQ, the abundance fitness came out at 0.02 ± 0.11.
Regarding EQYVVVANYQKQESSEISLSVGQVVDIIEKNESGWWFVSGAEEQGWVPATCLEGQ, the abundance fitness is -0.19 ± 0.059.
As to EQYVVVANYQKQESSEISLSVGQVVDIIEKNESGWWFVSKAEEQGWVPATCLEGQ, the abundance fitness was -0.035 ± 0.11.
Turning to EQYVVVANYQKQESSEISLSVGQVVDIIEKNESGWWFVSIAEEQGWVPATCLEGQ, the abundance fitness was -0.121 ± 0.11.
Regarding EQYVVVANYQKQESSEISLSVGQVVDIIEKNESGWWFVSYAEEQGWVPATCLEGQ, the abundance fitness was -0.151 ± 0.18.
With EQYVVVANYQKQESSEISLSVGQVVDIIEKNESGWWFVSEAEEQGWVPATCLEGQ, the abundance fitness is -0.337 ± 0.095.
For EQYVVVANYQKQESSEISLSVGQVVDIIEKNESGWWFVSVAEEQGWVPATCLEGQ, the abundance fitness was -0.042 ± 0.061.
Take EQYVVVANYQKQESSEISLSVGQVVDIIEKNESGWWFVSNAEEQGWVPATCLEGQ: the abundance fitness is -0.137 ± 0.17.
Consider EQYVVVANYQKQESSEISLSVGQVVDIIEKNESGWWFVSAAEEQGWVPATCLEGQ, for which the abundance fitness is -0.124 ± 0.07.
With EQYVVVANYQKQESSEISLSVGQVVDIIEKNESGWWFVSTTEEQGWVPATCLEGQ, the abundance fitness is 0.015 ± 0.078.
